Data on 13 proteins can be found in US20210230570.

As a reminder, the kcat is the maximal rate divided by the concentration of active sites. What is called kcat/KM is the second-order rate constant that governs catalysis at low substrate concentration. As usually defined, the KM is the concentration of substrate that gives half-maximal velocity.

The chains are these.
B1: FIXa-Y155F/K247N/N249S/R318Y/R338E/T343R (protein)
chain 1: YNSGKLEEFVQGNLERECMEEKCSFEEAREVFENTERTTEFWKQYVDGDQCESNPCLNGGSCKDDINSYECWCPFGFEGKNCELDVTCNIKNGRCEQFCKNSADNKVVCSCTEGYRLAENQKSCEPAVPFPCGRVSVSQTSKLTR
chain 2: VVGGEDAKPGQFPWQVVLNGKVDAFCGGSIVNEKWIVTAAHCVETGVKITVVAGEHNIEETEHTEQNRSVIRIIPHHNYNAAINKYNHDIALLELDEPLVLNSYVTPICIADKEYTNIFLKFGSGYVSGWGRVFHKGYSALVLQYLRVPLVDRATCLESTKFRIYNNMFCAGFHEGGRDSCQGDSGGPHVTEVEGTSFLTGIISWGEECAMKGKYGIYTKVSRYVNWIKEKTKLT
B2: FIXa-Y155F/K247N/N249S/R403E/E410N (protein)
chain 1: YNSGKLEEFVQGNLERECMEEKCSFEEAREVFENTERTTEFWKQYVDGDQCESNPCLNGGSCKDDINSYECWCPFGFEGKNCELDVTCNIKNGRCEQFCKNSADNKVVCSCTEGYRLAENQKSCEPAVPFPCGRVSVSQTSKLTR
chain 2: VVGGEDAKPGQFPWQVVLNGKVDAFCGGSIVNEKWIVTAAHCVETGVKITVVAGEHNIEETEHTEQNRSVIRIIPHHNYNAAINKYNHDIALLELDEPLVLNSYVTPICIADKEYTNIFLKFGSGYVSGWGRVFHKGRSALVLQYLRVPLVDRATCLRSTKFTIYNNMFCAGFHEGGRDSCQGDSGGPHVTEVEGTSFLTGIISWGEECAMKGKYGIYTKVSEYVNWIKNKTKLT
B3: FIXa-K247N/N249S/R318Y/R338E/T343R (protein)
chain 1: YNSGKLEEFVQGNLERECMEEKCSFEEAREVFENTERTTEFWKQYVDGDQCESNPCLNGGSCKDDINSYECWCPFGFEGKNCELDVTCNIKNGRCEQFCKNSADNKVVCSCTEGYRLAENQKSCEPAVPFPCGRVSVSQTSKLTR
chain 2: VVGGEDAKPGQFPWQVVLNGKVDAFCGGSIVNEKWIVTAAHCVETGVKITVVAGEHNIEETEHTEQNRSVIRIIPHHNYNAAINKYNHDIALLELDEPLVLNSYVTPICIADKEYTNIFLKFGSGYVSGWGRVFHKGYSALVLQYLRVPLVDRATCLESTKFRIYNNMFCAGFHEGGRDSCQGDSGGPHVTEVEGTSFLTGIISWGEECAMKGKYGIYTKVSRYVNWIKEKTKLT
B4: FIXa-K228N/K247N/N249S/R318Y/R338E/T343R/E410N (protein)
chain 1: YNSGKLEEFVQGNLERECMEEKCSFEEAREVFENTERTTEFWKQYVDGDQCESNPCLNGGSCKDDINSYECWCPFGFEGKNCELDVTCNIKNGRCEQFCKNSADNKVVCSCTEGYRLAENQKSCEPAVPFPCGRVSVSQTSKLTR
chain 2: VVGGEDAKPGQFPWQVVLNGKVDAFCGGSIVNEKWIVTAAHCVETGVNITVVAGEHNIEETEHTEQNRSVIRIIPHHNYNAAINKYNHDIALLELDEPLVLNSYVTPICIADKEYTNIFLKFGSGYVSGWGRVFHKGYSALVLQYLRVPLVDRATCLESTKFRIYNNMFCAGFHEGGRDSCQGDSGGPHVTEVEGTSFLTGIISWGEECAMKGKYGIYTKVSRYVNWIKNKTKLT
B5: FIXa-D104N/K106S/R318Y/R338E/T343R/R403E/E410N (protein)
chain 1: YNSGKLEEFVQGNLERECMEEKCSFEEAREVFENTERTTEFWKQYVDGDQCESNPCLNGGSCKDDINSYECWCPFGFEGKNCELDVTCNIKNGRCEQFCKNSANNSVVCSCTEGYRLAENQKSCEPAVPFPCGRVSVSQTSKLTR
chain 2: VVGGEDAKPGQFPWQVVLNGKVDAFCGGSIVNEKWIVTAAHCVETGVKITVVAGEHNIEETEHTEQKRNVIRIIPHHNYNAAINKYNHDIALLELDEPLVLNSYVTPICIADKEYTNIFLKFGSGYVSGWGRVFHKGYSALVLQYLRVPLVDRATCLESTKFRIYNNMFCAGFHEGGRDSCQGDSGGPHVTEVEGTSFLTGIISWGEECAMKGKYGIYTKVSEYVNWIKNKTKLT
B6: FIXa-Y155F/R318Y/T343R/E410N (protein)
chain 1: YNSGKLEEFVQGNLERECMEEKCSFEEAREVFENTERTTEFWKQYVDGDQCESNPCLNGGSCKDDINSYECWCPFGFEGKNCELDVTCNIKNGRCEQFCKNSADNKVVCSCTEGYRLAENQKSCEPAVPFPCGRVSVSQTSKLTR
chain 2: VVGGEDAKPGQFPWQVVLNGKVDAFCGGSIVNEKWIVTAAHCVETGVKITVVAGEHNIEETEHTEQKRNVIRIIPHHNYNAAINKYNHDIALLELDEPLVLNSYVTPICIADKEYTNIFLKFGSGYVSGWGRVFHKGYSALVLQYLRVPLVDRATCLRSTKFRIYNNMFCAGFHEGGRDSCQGDSGGPHVTEVEGTSFLTGIISWGEECAMKGKYGIYTKVSRYVNWIKNKTKLT
B7: FIXa-K228N/K247N/N249S/R318Y/T343R/R403E/E410N (protein)
chain 1: YNSGKLEEFVQGNLERECMEEKCSFEEAREVFENTERTTEFWKQYVDGDQCESNPCLNGGSCKDDINSYECWCPFGFEGKNCELDVTCNIKNGRCEQFCKNSADNKVVCSCTEGYRLAENQKSCEPAVPFPCGRVSVSQTSKLTR
chain 2: VVGGEDAKPGQFPWQVVLNGKVDAFCGGSIVNEKWIVTAAHCVETGVNITVVAGEHNIEETEHTEQNRSVIRIIPHHNYNAAINKYNHDIALLELDEPLVLNSYVTPICIADKEYTNIFLKFGSGYVSGWGRVFHKGYSALVLQYLRVPLVDRATCLRSTKFRIYNNMFCAGFHEGGRDSCQGDSGGPHVTEVEGTSFLTGIISWGEECAMKGKYGIYTKVSEYVNWIKNKTKLT
B8: FIXa-Y155F/K247N/N249S/T343R/E410N (protein)
chain 1: YNSGKLEEFVQGNLERECMEEKCSFEEAREVFENTERTTEFWKQYVDGDQCESNPCLNGGSCKDDINSYECWCPFGFEGKNCELDVTCNIKNGRCEQFCKNSADNKVVCSCTEGYRLAENQKSCEPAVPFPCGRVSVSQTSKLTR
chain 2: VVGGEDAKPGQFPWQVVLNGKVDAFCGGSIVNEKWIVTAAHCVETGVKITVVAGEHNIEETEHTEQNRSVIRIIPHHNYNAAINKYNHDIALLELDEPLVLNSYVTPICIADKEYTNIFLKFGSGYVSGWGRVFHKGRSALVLQYLRVPLVDRATCLRSTKFRIYNNMFCAGFHEGGRDSCQGDSGGPHVTEVEGTSFLTGIISWGEECAMKGKYGIYTKVSRYVNWIKNKTKLT
B9: FIXa-K228N/R318Y/R338E/T343R/R403E/E410N (protein)
chain 1: YNSGKLEEFVQGNLERECMEEKCSFEEAREVFENTERTTEFWKQYVDGDQCESNPCLNGGSCKDDINSYECWCPFGFEGKNCELDVTCNIKNGRCEQFCKNSADNKVVCSCTEGYRLAENQKSCEPAVPFPCGRVSVSQTSKLTR
chain 2: VVGGEDAKPGQFPWQVVLNGKVDAFCGGSIVNEKWIVTAAHCVETGVNITVVAGEHNIEETEHTEQKRNVIRIIPHHNYNAAINKYNHDIALLELDEPLVLNSYVTPICIADKEYTNIFLKFGSGYVSGWGRVFHKGYSALVLQYLRVPLVDRATCLESTKFRIYNNMFCAGFHEGGRDSCQGDSGGPHVTEVEGTSFLTGIISWGEECAMKGKYGIYTKVSEYVNWIKNKTKLT
B10: FIXa-R318Y/T343R/E410N (protein)
chain 1: YNSGKLEEFVQGNLERECMEEKCSFEEAREVFENTERTTEFWKQYVDGDQCESNPCLNGGSCKDDINSYECWCPFGFEGKNCELDVTCNIKNGRCEQFCKNSADNKVVCSCTEGYRLAENQKSCEPAVPFPCGRVSVSQTSKLTR
chain 2: VVGGEDAKPGQFPWQVVLNGKVDAFCGGSIVNEKWIVTAAHCVETGVKITVVAGEHNIEETEHTEQKRNVIRIIPHHNYNAAINKYNHDIALLELDEPLVLNSYVTPICIADKEYTNIFLKFGSGYVSGWGRVFHKGYSALVLQYLRVPLVDRATCLRSTKFRIYNNMFCAGFHEGGRDSCQGDSGGPHVTEVEGTSFLTGIISWGEECAMKGKYGIYTKVSRYVNWIKNKTKLT
B11: FIXa-K228N/K247N/N249S/R318Y/R338E/T343R/R403E (protein)
chain 1: YNSGKLEEFVQGNLERECMEEKCSFEEAREVFENTERTTEFWKQYVDGDQCESNPCLNGGSCKDDINSYECWCPFGFEGKNCELDVTCNIKNGRCEQFCKNSADNKVVCSCTEGYRLAENQKSCEPAVPFPCGRVSVSQTSKLTR
chain 2: VVGGEDAKPGQFPWQVVLNGKVDAFCGGSIVNEKWIVTAAHCVETGVNITVVAGEHNIEETEHTEQNRSVIRIIPHHNYNAAINKYNHDIALLELDEPLVLNSYVTPICIADKEYTNIFLKFGSGYVSGWGRVFHKGYSALVLQYLRVPLVDRATCLESTKFRIYNNMFCAGFHEGGRDSCQGDSGGPHVTEVEGTSFLTGIISWGEECAMKGKYGIYTKVSEYVNWIKEKTKLT
B12: FIXa-Y155F/R338E/T343R/E410N (protein)
chain 1: YNSGKLEEFVQGNLERECMEEKCSFEEAREVFENTERTTEFWKQYVDGDQCESNPCLNGGSCKDDINSYECWCPFGFEGKNCELDVTCNIKNGRCEQFCKNSADNKVVCSCTEGYRLAENQKSCEPAVPFPCGRVSVSQTSKLTR
chain 2: VVGGEDAKPGQFPWQVVLNGKVDAFCGGSIVNEKWIVTAAHCVETGVKITVVAGEHNIEETEHTEQKRNVIRIIPHHNYNAAINKYNHDIALLELDEPLVLNSYVTPICIADKEYTNIFLKFGSGYVSGWGRVFHKGRSALVLQYLRVPLVDRATCLESTKFRIYNNMFCAGFHEGGRDSCQGDSGGPHVTEVEGTSFLTGIISWGEECAMKGKYGIYTKVSRYVNWIKNKTKLT
B13: FIXa-Y155F/R318Y/R338E/T343R/R403E/E410N (protein)
chain 1: YNSGKLEEFVQGNLERECMEEKCSFEEAREVFENTERTTEFWKQYVDGDQCESNPCLNGGSCKDDINSYECWCPFGFEGKNCELDVTCNIKNGRCEQFCKNSADNKVVCSCTEGYRLAENQKSCEPAVPFPCGRVSVSQTSKLTR
chain 2: VVGGEDAKPGQFPWQVVLNGKVDAFCGGSIVNEKWIVTAAHCVETGVKITVVAGEHNIEETEHTEQKRNVIRIIPHHNYNAAINKYNHDIALLELDEPLVLNSYVTPICIADKEYTNIFLKFGSGYVSGWGRVFHKGYSALVLQYLRVPLVDRATCLESTKFRIYNNMFCAGFHEGGRDSCQGDSGGPHVTEVEGTSFLTGIISWGEECAMKGKYGIYTKVSEYVNWIKNKTKLT

The target in the series is Factor X (FX), P00742.
Chain of Factor X (FX), P00742 (P00742 whole entry, looked up): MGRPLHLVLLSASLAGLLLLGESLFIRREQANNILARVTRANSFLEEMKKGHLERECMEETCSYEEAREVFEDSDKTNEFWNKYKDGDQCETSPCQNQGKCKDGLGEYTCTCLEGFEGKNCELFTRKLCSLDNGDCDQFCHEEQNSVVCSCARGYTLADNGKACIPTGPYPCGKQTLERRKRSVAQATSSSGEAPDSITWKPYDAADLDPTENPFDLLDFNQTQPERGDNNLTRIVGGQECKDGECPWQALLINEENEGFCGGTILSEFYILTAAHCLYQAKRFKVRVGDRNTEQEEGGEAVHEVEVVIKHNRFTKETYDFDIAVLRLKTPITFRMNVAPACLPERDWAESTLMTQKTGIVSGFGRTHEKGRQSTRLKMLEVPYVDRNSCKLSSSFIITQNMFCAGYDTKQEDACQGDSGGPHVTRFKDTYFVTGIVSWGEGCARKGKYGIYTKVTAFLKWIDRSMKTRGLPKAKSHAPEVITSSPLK
B1: the kcat came to 8.5 s⁻¹ and the catalytic efficiency (kcat/KM) turned out to be 3.6e+08 M⁻¹ s⁻¹.
In the same order, the values of B2 are 2.7 s⁻¹ and 2.4e+07 M⁻¹ s⁻¹.
On to B3, for which the catalytic constant (kcat) turned out to be 8 s⁻¹ and the catalytic efficiency (kcat/KM) was determined as 3.9e+08 M⁻¹ s⁻¹.
In the case of B4, the kcat (s^-1) for activation of FX by FIXa in the Xase complex (FVIIIa, PC/PS vesicles, Ca2+), fluorogenic Spectrafluor FXa read-out amounted to 4.7 s⁻¹ and the kcat/KM was determined as 1.3e+08 M⁻¹ s⁻¹.
For the protein B5, the KM worked out at 0.0266 µM and the kcat of FX activation by FIXa in the Xase complex (FVIIIa, PC/PS vesicles, Ca2+) amounted to 5.7 s⁻¹.
For the protein B6, the kcat (s^-1) for activation of FX by FIXa in the Xase complex (FVIIIa, PC/PS vesicles, Ca2+), fluorogenic Spectrafluor FXa read-out turned out to be 5 s⁻¹ and the kcat/KM turned out to be 1.5e+08 M⁻¹ s⁻¹.
For B7, the kcat (s^-1) for activation of FX by FIXa in the Xase complex (FVIIIa, PC/PS vesicles, Ca2+), fluorogenic Spectrafluor FXa read-out was 8.1 s⁻¹ and the catalytic efficiency (kcat/KM) turned out to be 7.1e+07 M⁻¹ s⁻¹.
Turning to B8, the kcat came out at 7.9 s⁻¹ and the kcat/KM turned out to be 2.8e+08 M⁻¹ s⁻¹.
Consider B9, for which the kcat (s^-1) for activation of FX by FIXa in the Xase complex (FVIIIa, PC/PS vesicles, Ca2+), fluorogenic Spectrafluor FXa read-out was 10.5 s⁻¹ and the catalytic efficiency (kcat/KM) was found to be 2.7e+08 M⁻¹ s⁻¹.
In the same order, the values of B10 are 3.2 s⁻¹ and 6.2e+07 M⁻¹ s⁻¹.
In the same order, the values of B11 are 10.9 s⁻¹ and 2.9e+08 M⁻¹ s⁻¹.
With B12, the kcat amounted to 6 s⁻¹ and the specificity constant (kcat/KM) worked out at 3.5e+08 M⁻¹ s⁻¹.
Regarding B13, the Michaelis-Menten constant (KM) came out at 0.0272 µM and the kcat of FX activation by FIXa in the Xase complex (FVIIIa, PC/PS vesicles, Ca2+) amounted to 7.8 s⁻¹.
